According to the domain aggregation screens of Martell et al. (2025):

Assay: soluble fraction after stress (log2 fold change); higher = more stays soluble; pooled small domains, quantitative proteomics
Conditions: stress: 50 degC
In short: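 Custom libraries of small protein domains were pooled and measured in a high-throughput format, with quantitative proteomics as the read-out. Each library was stressed at 50°C. The value is the log2 fold change in the amount of each protein that stays soluble after stress, used as a measure of aggregation propensity; higher values mean more of the protein stays soluble.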

Row | Sequence | soluble fraction (log2)
1 | HMIYGNGVTDLKDLANGATIIIPADDSNETRALFLLQQEGLIKLPDDADAAKGVSTLDIVDGGGWVTSM | 0.0431
2 | HMKLSNELLNAIMLIKKGIRNPTSLAQRLNTDTQYAKNLLEHLKMTGLINEHSRLTSRGLDIFHQK | 0.163
3 | HMAPTADSVPFVIRSVVGGAQPFIVLEDGSKLLVGGVYRKYRLVAVENTRIIFEGPRTAIVT | -1.33
4 | HMEKVTPEMIAEYNALAKKYNSNPEVVFKKKEIQRLKYIYSLMSEKQKETAEVFPNIPPPPPT | -0.234
5 | HMKKSTLLLFFLKELLEGKKISLKSFALENDINIRTAQRYIEDIEEAFPDNLLKENDFYSFV | -2.25
6 | HMFEDEPSEREIRISTLLAAFLKQEDGGTAVSRERFLKENSDVAEDLQILLEMADMIQEMAGP | -0.418
7 | HMSEKLLTLNEISEKLRVSRHTVQAWVSPSSPNHRPEFSSLARHAGRKTVFLESDVDAWLAQRR | -0.839
8 | HMDIYKKFIIPATYFGSRLDHVLSELLPELSRSKIQNMIKQNLVMINGNHAAQKQKVVGDEEIIIKDI | -0.0556
9 | HMAAESWTEKSRALAAAGLVVMGRDAQTKIEELTNLAPLIEAANASNTRLLTSQSIDELLSIVPTEENL | 0.0724
10 | HMSKNDLAGDEADVYKLLSVETGKPISDLVNRLPFGKSKTREILNTLAEKGFVYISGSGRGTKYHR | 0.0557
11 | HMDESLLDYALREIKARIQNGTYPPGTKLSTQEISDSLGISRTPVVAAINRLVAQGVAEAIPRRGTIVAR | 0.0188
12 | HMKFNRPMSEILQEWENKLGTTSDAELAGLIGVVTMTINRWRKNETKPDLSALNRYDRIVNLVVNNIKQL | -0.432
13 | HMGQTYTITINPTPADAKVIIDGVATNSVEAIDGRTLIWSVSKPGYLTKSGNYTVTGKNETLNIVLKEDPD | 0.087
14 | HMLDDESLHFFYKKDGWEYWMKTTTENNYPIQLRKKIGDEKVQEYWNGDKEKKKIGASYFGV | -0.391
15 | HMSYKYYSTERPLMPGSFPKPQGNTVLNIENFNDRSYVGKIGREAWGFIEYEKPISPVLLDDYELVAA | 0.0613
16 | HMSLGPNAYGKPATALNILRETVMGKELFDHAFKTYSKRWMFKHPSPEDFFRTMEDASAVDLDWFWR | -0.239
17 | HMDAIDQDGNHMTFKRWGEQLQEAFQALEAYDTDKAKTILNELIKFPIDSDLNNALKGILSNIDEMMA | -0.447
18 | HMASINRIENKNGKVVYRIIVSLGYDKQGKKLKKTITYNVNQTATKKQQENEALKYALDIEDKIKNGHD | -1.44
19 | HMDDYRSLRGQEKAAIFLMSLSQEQAAKIFANLDDEEIKEISQAMSSLGTVGSEIIERLFVEFAEQVSS | -1.06
20 | HMNREDYIKAIFKIAEREGEASNQRIADSLGVSRASASEMVKKLIQEGFVVAEGRQLSLSAEGERIA | 0.0824
21 | HMRGQGRILAMLKIQPEIATKDLAYLLGIRQQSLNELLKKLEKNSYVERRPSEKDRRVMVVHLTEKGKE | -0.715
22 | HMEDVSTLAVKQRIDDLVKQENPAKPLSDSDIVARLKTDGIYIARRTVAKYRMELNIPSSSARKRAQQFS | -0.833
23 | HMRQMIIIMQKQAAASSVAAVVEFIRSKGLREHISPGAERTIIGAVGDERVFLPQELESLPQVERAIRVL | -1.14
24 | HMTDAYEVLDLNREASDEEIKKRYRELIREHHPDTLIAKGVPQEFVDLANDKMAAINAAYDRIEKDRGL | 0.279
25 | HMAPVEEWAKASVMEDPTLVTETMARIFAQQGQIGKARKAYRHLALTYPAKSTYFAAQLKKLNQR | -0.259

Row | Sequence | soluble fraction (log2)
26 | HMFPTLSPEEQRIVDQLAKENDLQANVIALRTALTIPQISALLFSLEMKGMVRLYAGGTYHLI | -2.81
27 | HMSHGSIYFSGKTGLKGSVDINGTVNSINKKIFLKPGNYNFLIKADGYKNLKGSFQISKGDKKFVELVLIP | -1.61
28 | HMTAFAGLTPRERDLLELIAQGRDNAQIAATLGVSDKTVRNHITHIFAKLEVETRAQAIVLARNAGFGRA | -0.356
29 | HMDPLGALSDRERQVLALIGQGHGLQAIADQLGVSYKTAANTSSALKKKLGVDGINGLMKFALDSG | -0.505
30 | HMDFFTAAPEEDEIGKRIDVYIAEYKEELSRSRVQKLIENGLVTVNGKAVKSNYKLRKGDILEVEIPDPE | 0.0151
31 | HMRRADRLLQLIQILRRHRRPVTGDVMARELEVSLRTVYRDIATLTIEGVPIRGEAGVGYVLGEGY | -2.39
32 | HMQFSAVVLDMETRRQVAGVAVYINPKGVVKTDMRGRFVIDGAFNSVTLVRQGYESLTLERSEMTDSIWM | -1.65
33 | HMEKIKNLTVTEFNLIANKNPSGSYDRITREALLHIIHKLESSYEAHTDLERKLFYKFRKAKFNAL | -1.91
34 | HMKRDEYIAQLKKYLKRLPKKEYDSAIEYFTEYFDEAGPERELEVIQELGQPKEAAKEMLLQLLNE | 0.0905
35 | HMNSEFPFNGGRIVDNVPANRLQIFFDEKPDADVRTRLKQNGFRWAPNSGAWQSYRHGYTLDWARREFNA | 0.134
36 | HMKSNKEKIYDFIQMHDTAEKEGGVSTTYIAQALSLQRTNVSSLLNALVEEGRIHKSNGRPVLYSIAG | 0.0955
37 | HMRDLLPHFQRELQFLQTHRNEFAAAYPELGGRLATASDLLDDPHVERMVQSFALLAARVHKRLDDDF | 0.206
38 | HMGHEEPITFDRLPQAAQTFLKTHFDTLTVAYIVADRKFMGVEYEVKYTDRTEVDFRSDGQWESV | 0.0592
39 | HMDAMMQRLERLKELASSADGSKDYLILGPLRRDLAKLMALEDPKLRQGAEELDRKILAILS | -0.208
40 | HMDDFSETLLQYIKEKGGHISLNDKTDAGVIYETFGVSKKTFKKAVGDLYKKRLIVLEDTGIRL | -0.0801
41 | HMSTMKIVRVKSNLKIGQEITSKDIEVVEVGAYNMPSEVMKNSEDVIGKYASAEMIKGEYVLAAKISDTP | 0.479
42 | HMGHLSNENAGRLLDRVLNDKIHAIMLGHLSKENNMPELAHEAVRMEITMGESRYKADDFPIYVA | 0.11
43 | HMTVAEVEDRMEASRVRQALDAVGEPHRTTIALAYFTGLTHTEIAQRMGVPLGTVKSRIRDGMAKMRTHLG | -0.617
44 | HMGSAIAHAIASLPDRYRELLLLKYDTGYSEKEIAQLLGMTEANVKKTIQRAKAKLQTLLDEMEA | -0.81
45 | HMSPQIDYFDDEELDVYRQIAPEAYTDEQIEVFRDILYTLRPEEVEEWLISLEKREINLPLILRQEAIELI | 0.369
46 | HMSAATGIINTDNVNIRSGPATTYDAVGRLNQGSSVEILSSRNDWYQIQANSLKGWVRNDLLNVQK | 0.0404
47 | HMNVWESVDLRQEQHEAKRRLILKQAALLFADRGFHETTIDQIAEALNVTKPTIYYYIESKEDLLYQVA | -0.0821
48 | HMMTDAEKTFIFFSHLSSVEDHIAYGDKQFYMSLFWQHENKRELSSSQLYHLERLYNKYSMEEIEKKEEFS | -0.78
49 | HMIDTLEYIISEESKGLRADQAITMVNGEFSRSLIQKWIKKGSILVNGKKIKPRDILNLNDKVTINPEEN | -0.0699
50 | HMGRYATVPDVVGSTPEVARELIRSEGLRYVLSEETVYSDSDTGTVGRTDPESGTRMSADDEVVVYLS | 0.0355

Row | Sequence | soluble fraction (log2)
51 | HMTDMYLTYQELRHLGVSQNLISMWKSRKSIDFHMLGGTLYVRYMSIPEQTRSKLALQNVERVYNSRE | -2.55
52 | HMTKLTPLEVNLYAKKLANDPEFGSKHIEPGESFSQAEERLRVQLSQQEYVQKYSKYLKKLKASA | 0.0851
53 | HMLERKFGTSLEIKSLSKFLIENNYKKNAKYLNKLIQVLGTRSENRIIKTFFKQFPEIENIFRNQL | -0.846
54 | HMLKHNLLSELSRIEGVGAVKRKALMDKFGTVENIKRASEEELSEVAGIGPTLARTIKEQMNKDE | -0.184
55 | HMQASPADLLSDRELEVFQLTGEWKTTRQIAQELHLSVKTIEYYREQIKRKLNLKSAAELTQHATAWVQRG | -0.361
56 | HMSSKYLKIYNDIVGKIDSGIFEANTKLPSESQLMDEYNVSRYTVRKSLNLLEQNGYIEKSKGKGSFVLDM | -0.717
57 | HMVPDGFDQLTEREYQVAMAVGKGLNNKEIASQLGLGERTVKAHLTTTFEKLHVRDRVQLALIVNRL | -0.556
58 | HMKEPFETMPDVMDAKQIAEALQISKAGAYNLLNSPDFPTLRIGGRKLVMKNELVEWLKSHTNRK | 0.274
59 | HMDKMVAVPNVRGIEASEAEATLIAQGLFVEVEKSDSEDANVAYGEVYAQTPKAGNRVEEGTTITIKVRTE | 0.0555
60 | HMEPTPREIVVQQLGYRGLEVLGNAEYQFPKETQIIILKLAELISSGSVTETLEGGKLLALFRGVGINVR | -1.59
61 | HMPEPPRVGETLAALRQDRALSLDELSRQAGVSKSMLSQIERNQANPTVAVVWRLANALGVPMAELLGA | -0.108
62 | HMEEPEYELLRQAVLALPEKYRLPIHLYYYEEYSVREIAEILQRKESAVQTQLQRGREKIRRSLTEKGVS | -0.77
63 | HMAEPIEKIIIEGNQRIEALTIQSYLLLRVGEPFNRQLMNQTLKSLYATGYFSDVAVTRVSSSLLVK | 0.133
64 | HMDLTIEQTTVLGKRLFSNALNSLGKKQRNIKKDAIESLLKRMNLKDMDQLYESIGIGDKSPLLMAQILL | -0.0296
65 | HMREIDIWVAEDADSQRIDKYLSMVVEDLSRSRIASLIEGGSILVNGEVIRAKYKVKPADHITAAFEDEM | -0.72
66 | HMEKDKGTILKEARIKKGLTQEQLANNINYTRQYISKWENNISLPKDIQTLKKISNLLSIPLKELLPEDYL | -0.109
67 | HMALKSYEDMVGKTGVAYTVLRPSGKVIINDELFDATARSGMIEKGNEVIIYDYKNAQLIVEK | 0.0774
68 | HMKIDNIIIYITGGVKKEGVYELPDGSRISDAIEQAEGLKANADTSSINLAYKLEDGMKIKIPLQGEN | -0.0298
69 | HMHTTIIVASRDIAAGSVLTSHDLSSVAWVGGAVPKGSYTAADLAVGKTAFTAFQQGEPILESRLAS | -0.00332
70 | HMSKSIGEALKEERRSLGLTQEQFIKGIISESFYSKVERGKNEIVAVDLLKILAANNISEEEFLSKLN | -0.58
71 | HMESYNIVEQVLTKKILSKGNTLAKLSNEFDGLVMLVIRGDEFIIPNGETLLFEKDILVINNGP | -1.72
72 | HMDKQGGWLTMAEAAEKLGVTHHVIRRLIKEKILPAEQVMRHAPHQIRIVDLESDAVAEALRHR | -0.215
73 | HMNKIENLSQTILNILRKDHSQAFNYKQIAAKLQLDDPSSRNQIVKKLKDLQGKGTIQEIERGKYILTP | 0.358
74 | HMDAVQAGKRVLIVDDLIATGGTAKAATDLIEKAGGTVVGFSFVMRLDGLDGLDKLDGKPSSSLIAMP | 0.237
75 | HMPTLTPFDVARIENAINPRLNLETAAKLKPWIAAGYTAQETADGTGFSPDTVKKYAAIFRK | 0.103
